Laboratory results taken from US20230151104A1 (REMD BIOTHERAPEUTICS, published 2023).

B1: murine mAb 132F3F3H11 ("A8") (antibody, V domains shown)
VH: DVQLVESGGGLVQPGGSRKLSCAASGFTFSSSGMHWVRQAPEKGLEWVAYISSGSSSIYYADTVKGRFTISRDNPKNTLFLQMTSLRSEDTAMYYCARPYYYGSIAMDYWGQGTSVTVSS
VL: DIKMTQSPSSMYASLGERVTITCKASQDINSYLSWFQQKPGKSPKTLIYRANRLVDGVPSRFSGSGSGQDYSLTISSLEYEDMGIYYCLQYDEFPFTFGSGTKLEIK
B2: murine mAb 201D10A12C1 ("A15") (antibody, V domains shown)
VH: EVQLQQSGPVLVRPGASVKMSCKASGYAFTDFHLNWVKQSHGKSLEWIGVINPYNGGTNYNQKFKDKATLTVDKSSSTAYMELNRLTSEDSAVYYCARYYASRYGYAMDYWGQGTSVTVSS
VL: DIVMTQAAPSVPVTPGESVSISCRSSKSLLHSNGNTYLYWFLQRPGQSPQLLIYRMSNLASGVPDRFSGSGSGTAFTLRISRVEAEDVGIYYCMQHVEYPLTFGAGTKLELK
B3: murine mAb 201D10E9F2 ("A17") (antibody, V domains shown)
VH: B2 VH
VL: B2 VL

Each binder was assayed against tagged CXCR4 receptors stably expressed on recombinant CHO cells (human, UniProt P61072 1-352 (Pan troglodytes entry)) (assay: cell-based or functional assay).
tagged CXCR4 receptors stably expressed on recombinant CHO cells, sequence (P61072 other isoform, or with tags, fused parts or gaps): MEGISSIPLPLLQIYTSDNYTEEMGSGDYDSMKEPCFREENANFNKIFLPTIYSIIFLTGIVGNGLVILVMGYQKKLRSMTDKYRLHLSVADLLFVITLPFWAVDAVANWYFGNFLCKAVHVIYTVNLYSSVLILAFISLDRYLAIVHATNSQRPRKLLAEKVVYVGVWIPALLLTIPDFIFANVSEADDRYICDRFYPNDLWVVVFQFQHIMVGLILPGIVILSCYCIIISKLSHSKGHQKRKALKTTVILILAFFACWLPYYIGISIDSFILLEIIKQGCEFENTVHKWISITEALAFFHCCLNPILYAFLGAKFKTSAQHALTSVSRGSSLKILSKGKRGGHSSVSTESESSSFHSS

Binder | HuCXCR4 Binding IC50 (nM) (CXCR4 cAMP functional assay, antagonist mode against 5.0 nM SDF-1)
B1 | 0.381
B2 | 1.18
B3 | 1.48
